Test system: MS2 coat protein
Assay: apparent KD of MS2 coat protein; higher = weaker reporter binding
Settings: Eterna round: R107; input ligand: arginine 13.2 mM
In short: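 Designed RNA switches were transcribed on-chip from Illumina sequencing clusters. SNAP-549-labelled MS2 coat protein was titrated onto them in twofold steps from 0.7 or 1.5 nM to 3 µM in 100 mM Tris-HCl pH 7.5, 80 mM KCl, 4 mM MgCl2, either without or with constant ligand. Apparent KD reflects the per-design median of normalised cluster binding-curve fits.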

Sequence | apparent KD of MS2 coat protein
AAUUGGGUUGGUGAGGUGGUUGGAGGCGAUACCAGCGUGGAAACACGCCCUUGGCAGCGCCAGGACAUGAGGAUCACCCAUGUUC [Ostrava] | 19.6 nM
UGACAUUGCUCAGAUACCAGACAUGAGGAUCACCCAUGUACCAAGAAAACGUACAAUAAUGUCCCUUGGCAGCUGAGCAAUGUCU [TheoBX 9 #MS2Left #Theo2] | 64.8 nM
GAUGAUAUUGCAGAUACCAGACACAUGAGGAUCACCCAUGUCGUUGGGUAGCUGGGUCGUGUCCCUUGGCAGCUGCGAUAUCAUC [#05 Exclusion-TheophyllineB] | 19.8 nM
CGGUCGGUCGGCCGGUGAUUAUGGGAUGAAGGAGCGUGGGAAGCUACAGGUAGGUCGCAUCCGAAACAUCACGAUCACGGAUGUU [SSArg A #26Alt-Ms2 Mod] | 46.3 nM
GAGACGUCGGGAAGGAGCGCAUCCAAACCACACAUGAGGAUCACCCAUGUAUAAAUAUGCAUGCAGGUAGGUCGCCCGGUGUCCC [Diaxeon] | 59.7 nM
GCUAGGUCUACGGCCGCCACUAGACGUGGGUAAAACAUGAGGAUCACCCAUGUGCUACGGGCGAAUAGGACCGGGUAGACCUAGC [SSTB NP+V+V2 #15 +-Same Structure] | 60.1 nM
UUCAGCUAGUCGGCCGCCACUACAUGAGGAUCACCCAUGUAUCCUAAACACUGCUUCGGCAGUGGUAGGACCGGGACUAGCUGAG | 18.1 nM
AAUCUGUCGGGUGAUACCAGCCUCGGCACGUCUCGUGCCGAACAUGAGGAUCACCCAUGUGGCCCUUGGCAGCACAUGACAAAUC [Teaton] | 71.8 nM
AAACAUGAGGAUCACCCAUGUAAUUCAGAAGGAGCGUCAUUAUUGACAGGUAGGUCGCUGAUAAAAUUUCUAUACAUCAUGUAUA [JR_SSArginiA_Sub013] | 11.9 nM
AGCUGGGAUCCUCAGCGUCAAAGACGCAGUCGAGGACCGGUACGGCCGCCACUCGACACGAGGAUCACCCGUGUCAUUCCCAGCA [TrypAX 1 #SwitchBubble #AlternativeMS2 #MS2Late #CuTurnoff] | 34.5 nM
CUAGGAAACUAGUAAGGGUGGUAUUGAGAUACCAGUACAGAAAUGUACCCUUGGCAGCUCACUGCAACAUGAGGAUCACCCAUGU [Ex Theophylline A 12] | 22.5 nM
CCUUAAUAUAGAAGGAGCGCGCUAACAUGAGGAUCACCCAUGUAAAGGGUUUUUGGCUUAGCGCAGGUAGGUCGCUAUAAGAACC [Arg B Ex t1] | 74 nM
AUCUUUGACGAUCUGGGAAAACCAGAUCGGCGAGGACCGGUACGGCCGCCACUCGUGUAUAAUAUACAUGAGGAUCACCCAUGUA [#19 Tryptophan A Same State] | 27.3 nM
AAGGAACAUGAGGAUCACCCAUGUACCGAAGGAGCGGCAGAGAUGCCAGGUAGGUCGCGGUACUUGCCGGGUCAUUCAUGCAGAG [Arraiste] | 39.1 nM
AAUUCCUCACAUGAGGAUCACCCAUGUGAAGGAGCGCGGAAUAACGCAGGUAGGUCGCACAUGGAAACCGCUGCGAAAGCAGCAA [MAT - Exclusion Arginine A - Mod of Eli - D26] | 13.1 nM
AGUACACGAACUGAUACCAGCCGGACAUGAGGAUCACCCAUGUCCUACCUCUGUUCGGUUGGCCCUUGGCAGCAGUUCGUGUACA [Omei Theo B SS A v9] | 40.5 nM
AUGCACGGGCUAAUCUGCGAUUGGCACGAUACCAGAGAUCAAGACCUCCCUUGGCAGCGUGUCACAUGAGGAUCACCCAUGUGGA [theeternabot_exclusion_MS2_Theo_A_40] | 43.4 nM
CCUAUGCAGUCGGCCGCCACUGAACAUGAGGAUCACCCAUGUAAUUAAAAUUAAGGUCCUAAAAUCAGGACCGGGACUGUAUAGG [Ex Tryptophan B 6] | 37.6 nM
GCACUACAUGAGGAUCACCCAUGUGCAGAUACCAGAGGUGUAUGCCUCCCUUGGCAGCUGAGUAGCUCUGGAGGCCUAUUGGUUU [Same State Theophylline A GF15] | 15.7 nM
UGACAUUGCUCAGAUACCAGACAUGAGGAUCACCCAUGUACCAAGAAAGUACAAUAAAAUGUCCCUUGGCAGCUGAGCAAUGUCU [TheoBX 8 #MS2Left #Theo2] | 61.2 nM
CGACUACAGCGUGAUACCAGUGACAGAUACCAGUCUAGACAUGAGGAUCACCCAUGUACGCGCCCUUGGCAGCACACUAGAUCGA [#29 Same State - Theophylline B] | 36.7 nM
ACUACAUGAGGAUCACCCAUGUGUACUGAAGGAGCGGCGGAAACGCCAGGUAGGUCGCAGUACACCUCAACCAGCGGUCCUAAGU [EAA NP+V+V2 #1] | 30 nM
GGGUACAUCGCGGCCGCCACUCAUGUAAAUACAUGAGGAUCACCCAUGUCGAUGGAGACAUCGGAGAGGACCGGGCGAUGUACCG | 224 nM
UCUUUUUUCUUUUCUUCUUUCGGUUCUUUUCGAGGACCGGUACGGCCGCCACUCGAAACAUGAGGAUCACCCAUGUUUUGGUUUU [Trypto a] | 15.9 nM
GAUGAACUAUUUGAUACCAGACUACAUGAGGAUCACCCAUGUGUGUUUAUACUUCAGUCAGUCCCUUGGCAGCAAAUAGUUUAUC [XTheo B #3] | 94.8 nM
GAAAAUCCCGUACAUGAGGAUCACCCAUGUCGAGGACCGGUACGGCCGCCACUCGCACGCAUUGCAUUGGAGGGUCAGGUACGAG [Erenerrati] | 26.9 nM
GAUGAACUAUUUGAUACCAGACUACAUGAGGAUCACCCAUGUGAGUUUCGUCCUCUGCCAGUCCCUUGGCAGCAAAUAGUUUAUC [XTheo B #8] | 15.8 nM
UCGCAUUGCUCAGAUACCAGACAUGAGGAUCACCCAUGUACCAAGGUACCCGAAAGGAAUGUCCCUUGGCAGCUGAGCAAUGCGU [MAT - Exclusion Theophlline B - Mod of Eli - D19] | 10.5 nM
AUGCCUAGUGGAAGGAGCGAGGGUCCUCUCAACAUGAGGAUCACCCAUGUUCUUUUGCACCCUCAGGUAGGUCGCCAUUGGGACA [Veanaris] | 30.8 nM

Same assay, conditions: Eterna round: R107; input ligand: none

Sequence | apparent KD of MS2 coat protein
GAGACGUCGGGAAGGAGCGCAUCCAAACCACACAUGAGGAUCACCCAUGUAUAAAUAUGCAUGCAGGUAGGUCGCCCGGUGUCCC [Diaxeon] | 87.2 nM
GCUAGGUCUACGGCCGCCACUAGACGUGGGUAAAACAUGAGGAUCACCCAUGUGCUACGGGCGAAUAGGACCGGGUAGACCUAGC [SSTB NP+V+V2 #15 +-Same Structure] | 368 nM
UUCAGCUAGUCGGCCGCCACUACAUGAGGAUCACCCAUGUAUCCUAAACACUGCUUCGGCAGUGGUAGGACCGGGACUAGCUGAG | 13.9 nM
AAACAUGAGGAUCACCCAUGUAAUUCAGAAGGAGCGUCAUUAUUGACAGGUAGGUCGCUGAUAAAAUUUCUAUACAUCAUGUAUA [JR_SSArginiA_Sub013] | 12.4 nM
CCUUAAUAUAGAAGGAGCGCGCUAACAUGAGGAUCACCCAUGUAAAGGGUUUUUGGCUUAGCGCAGGUAGGUCGCUAUAAGAACC [Arg B Ex t1] | 128 nM
AAGGAACAUGAGGAUCACCCAUGUACCGAAGGAGCGGCAGAGAUGCCAGGUAGGUCGCGGUACUUGCCGGGUCAUUCAUGCAGAG [Arraiste] | 26.3 nM
AAUUCCUCACAUGAGGAUCACCCAUGUGAAGGAGCGCGGAAUAACGCAGGUAGGUCGCACAUGGAAACCGCUGCGAAAGCAGCAA [MAT - Exclusion Arginine A - Mod of Eli - D26] | 18.7 nM
ACUACAUGAGGAUCACCCAUGUGUACUGAAGGAGCGGCGGAAACGCCAGGUAGGUCGCAGUACACCUCAACCAGCGGUCCUAAGU [EAA NP+V+V2 #1] | 38.2 nM
GGGUACAUCGCGGCCGCCACUCAUGUAAAUACAUGAGGAUCACCCAUGUCGAUGGAGACAUCGGAGAGGACCGGGCGAUGUACCG | 398 nM
GAAAAUCCCGUACAUGAGGAUCACCCAUGUCGAGGACCGGUACGGCCGCCACUCGCACGCAUUGCAUUGGAGGGUCAGGUACGAG [Erenerrati] | 28.5 nM
AUGCCUAGUGGAAGGAGCGAGGGUCCUCUCAACAUGAGGAUCACCCAUGUUCUUUUGCACCCUCAGGUAGGUCGCCAUUGGGACA [Veanaris] | 59.8 nM

Same assay, conditions: Eterna round: R107; input ligand: theophylline 20 uM

Sequence | apparent KD of MS2 coat protein
AAUUGGGUUGGUGAGGUGGUUGGAGGCGAUACCAGCGUGGAAACACGCCCUUGGCAGCGCCAGGACAUGAGGAUCACCCAUGUUC [Ostrava] | 36 nM
UGACAUUGCUCAGAUACCAGACAUGAGGAUCACCCAUGUACCAAGAAAACGUACAAUAAUGUCCCUUGGCAGCUGAGCAAUGUCU [TheoBX 9 #MS2Left #Theo2] | 180 nM
GAUGAUAUUGCAGAUACCAGACACAUGAGGAUCACCCAUGUCGUUGGGUAGCUGGGUCGUGUCCCUUGGCAGCUGCGAUAUCAUC [#05 Exclusion-TheophyllineB] | 48.2 nM
CGGUCGGUCGGCCGGUGAUUAUGGGAUGAAGGAGCGUGGGAAGCUACAGGUAGGUCGCAUCCGAAACAUCACGAUCACGGAUGUU [SSArg A #26Alt-Ms2 Mod] | 134 nM
GAGACGUCGGGAAGGAGCGCAUCCAAACCACACAUGAGGAUCACCCAUGUAUAAAUAUGCAUGCAGGUAGGUCGCCCGGUGUCCC [Diaxeon] | 125 nM
GCUAGGUCUACGGCCGCCACUAGACGUGGGUAAAACAUGAGGAUCACCCAUGUGCUACGGGCGAAUAGGACCGGGUAGACCUAGC [SSTB NP+V+V2 #15 +-Same Structure] | 529 nM
UUCAGCUAGUCGGCCGCCACUACAUGAGGAUCACCCAUGUAUCCUAAACACUGCUUCGGCAGUGGUAGGACCGGGACUAGCUGAG | 21.6 nM
AAUCUGUCGGGUGAUACCAGCCUCGGCACGUCUCGUGCCGAACAUGAGGAUCACCCAUGUGGCCCUUGGCAGCACAUGACAAAUC [Teaton] | 729 nM
AAACAUGAGGAUCACCCAUGUAAUUCAGAAGGAGCGUCAUUAUUGACAGGUAGGUCGCUGAUAAAAUUUCUAUACAUCAUGUAUA [JR_SSArginiA_Sub013] | 15.7 nM
AGCUGGGAUCCUCAGCGUCAAAGACGCAGUCGAGGACCGGUACGGCCGCCACUCGACACGAGGAUCACCCGUGUCAUUCCCAGCA [TrypAX 1 #SwitchBubble #AlternativeMS2 #MS2Late #CuTurnoff] | 387 nM
CUAGGAAACUAGUAAGGGUGGUAUUGAGAUACCAGUACAGAAAUGUACCCUUGGCAGCUCACUGCAACAUGAGGAUCACCCAUGU [Ex Theophylline A 12] | 29.3 nM
CCUUAAUAUAGAAGGAGCGCGCUAACAUGAGGAUCACCCAUGUAAAGGGUUUUUGGCUUAGCGCAGGUAGGUCGCUAUAAGAACC [Arg B Ex t1] | 162 nM
AUCUUUGACGAUCUGGGAAAACCAGAUCGGCGAGGACCGGUACGGCCGCCACUCGUGUAUAAUAUACAUGAGGAUCACCCAUGUA [#19 Tryptophan A Same State] | 61.3 nM
AAGGAACAUGAGGAUCACCCAUGUACCGAAGGAGCGGCAGAGAUGCCAGGUAGGUCGCGGUACUUGCCGGGUCAUUCAUGCAGAG [Arraiste] | 30.6 nM
AAUUCCUCACAUGAGGAUCACCCAUGUGAAGGAGCGCGGAAUAACGCAGGUAGGUCGCACAUGGAAACCGCUGCGAAAGCAGCAA [MAT - Exclusion Arginine A - Mod of Eli - D26] | 24 nM
